Laboratory results taken from PMC5500003.

Legend:
[1] = system: tau 4R2N (Homo sapiens), P10636-8; assay: EMSA; details: Hill coefficient 2.8; 26 nM tRNA, 0.5 mM MgCl2, 0.5 mM EDTA, 37 C; native tRNA modifications likely, not described; EMSA: 100 mM sodium acetate pH 7.0, 0.5 mM EDTA, 0.5 mM MgCl2, 0.01% IGEPAL CA-630, RNase inhibitor, 37 C 10 min, TBE 8% gel; ITC: 20 mM ammonium acetate pH 7 …
[2] = system: tau 4R2N (Homo sapiens), P10636-8; assay: ITC; details: n = 0.52 tRNA per tau; 20 mM ammonium acetate pH 7; EMSA: 100 mM sodium acetate pH 7.0, 0.5 mM EDTA, 0.5 mM MgCl2, 0.01% IGEPAL CA-630, RNase inhibitor, 37 C 10 min, TBE 8% gel; ITC: 20 mM ammonium acetate pH 7 …
[3] = system: tau K18 (Homo sapiens); assay: ITC; details: n = 0.49 tRNA per tau; 20 mM ammonium acetate pH 7; EMSA: 100 mM sodium acetate pH 7.0, 0.5 mM EDTA, 0.5 mM MgCl2, 0.01% IGEPAL CA-630, RNase inhibitor, 37 C 10 min, TBE 8% gel; ITC: 20 mM ammonium acetate pH 7 …

Sequence of tau 4R2N (Homo sapiens), P10636-8 (P10636 other isoform, or with tags, fused parts or gaps): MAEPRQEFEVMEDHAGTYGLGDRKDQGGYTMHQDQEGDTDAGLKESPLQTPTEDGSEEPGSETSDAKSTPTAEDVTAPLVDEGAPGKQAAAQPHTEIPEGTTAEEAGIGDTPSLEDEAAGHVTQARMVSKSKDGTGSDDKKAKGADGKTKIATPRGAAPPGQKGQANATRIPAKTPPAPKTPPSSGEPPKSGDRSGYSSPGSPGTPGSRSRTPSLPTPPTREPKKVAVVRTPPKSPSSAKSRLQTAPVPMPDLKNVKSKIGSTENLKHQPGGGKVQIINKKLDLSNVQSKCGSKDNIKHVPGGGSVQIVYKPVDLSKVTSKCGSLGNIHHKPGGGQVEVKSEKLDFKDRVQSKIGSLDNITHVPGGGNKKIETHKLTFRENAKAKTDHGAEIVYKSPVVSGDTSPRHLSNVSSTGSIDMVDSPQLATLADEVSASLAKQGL

Substance	Kd [1] [nM]	Kd [2] [nM]	Kd [3] [nM]
tRNALys, unacetylated	460		
yeast tRNA (bulk)		735	372
